This is an account of results in the supplement of paper PMC12764529.

The nature of the data set: folding stability dG unfold (combined trypsin and chymotrypsin); higher = more stable. The method, then:
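Folding stability of de novo designed mini-proteins (<80 aa, no Cys; designed by TrROS, TrMRF, ProteinMPNN and the joint model) was measured by cDNA display proteolysis with trypsin and chymotrypsin. Each protease was used at 11 concentrations in a threefold dilution series plus a no-protease condition. K50 was inferred by Bayesian fitting of sequencing counts, and dG unfold was derived against a sequence-predicted unfolded-state K50 (Tsuboyama et al. method). Sequences shown include variable-length N-terminal GS-type padding (SAGGSAGG...) inside a display construct carrying a PA tag. Rows were kept only if the AF2 dimer inter-PAE was >15, to exclude likely homo-oligomers.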
Take “SAGGSAGGSAGGSGSMEPQVVLRVTDTRGGNPTVTIYSPDVPLPPSPTTTVEPRPVSLESAGGSAGGSAGGS [r4_107_JUSTAS]”: the “folding stability dG unfold” value was less than -1 kcal/mol.
As for “SAGGSAGGSAGGSMKISLEFKVPIYEEFPGKEKPVEEVEVPVEVPENNEEEAEKIKKELSAGGSAGGSAGGS [r4_153_JUSTAS]”, the “folding stability dG unfold” value is less than -1 kcal/mol.
In the case of “SAGGSAGGSAGGSMVAYITTKGKKLEIEVPEDLPEEIKEELKKKGIPIESITFEEVEPESAGGSAGGSAGGS [r10_405_JUSTAS]” it was less than -1 kcal/mol.
The figure for “SAGGSAGGSAGGSMVTTKDPNSPVTYTLVPRPTPEELVVKTTTNPDGTPTVTLLPASLLSAGGSAGGSAGGS [r4_434_JUSTAS]” is less than -1 kcal/mol; for “SAGGSAGGSAGGSMYRIEIKMPNNPRTIWVPPDELPDDDLEEIAKENFPNIDKIKVWRWSAGGSAGGSAGGS [r4_235_TrROS]” it is less than -1 kcal/mol; for “SAGGSAGGSAGGSPEELAAAIRAEGREAEIEVTPDEVTIRLTAPDGRRSTLTVPRAALASAGGSAGGSAGGS [r10_1029_JUSTAS]” it is less than -1 kcal/mol.
In the case of “SAGGSAGGSAGGSPFTIRNPNGMQVRIDDFDPEEGKVKIEIEMPNKPVEYPIPLDDIIFSAGGSAGGSAGGS [r4_110_TrROS]” it was less than -1 kcal/mol; in that of “SAGGSAGGSAGGSPMLLVRVKKTNKWISLEEALEEAEKKGEEIEIEEVEVVELPPGQEPSAGGSAGGSAGGS [r4_479_TrROS_Hall]”, less than -1 kcal/mol; in that of “SAGGSAGGSAGGSQNEVQIPFNNMPPQQARNIADEALDKNKDIENIEVERDDGMFKVKVSAGGSAGGSAGGS [r4_330_TrROS]”, less than -1 kcal/mol.
“SAGGSAGGSAGGSRKINIFFDDPEQARKFAREIRNEGLPPEDMPIKVEITPIPPEDMGASAGGSAGGSAGGS [r4_281_TrROS]”: the “folding stability dG unfold” value is less than -1 kcal/mol.
The figure for “SAGGSAGGSAGGSTPSGTLKEVSEEVEPDGIRITTTTYSLPNPGVFKTVVTVEPEAREESAGGSAGGSAGGS [r4_163_JUSTAS]” is less than -1 kcal/mol; for “SAGGSAGGSAGGSVKTPEGVEVAPDEPVEERVEHPPVARPVKVTLYALPNSNEYSEEIASAGGSAGGSAGGS [r4_13_JUSTAS]” it is less than -1 kcal/mol; for “SAGGSAGGSAGGSVVPPGAKVKVTLEGEEKVVEADSLSEIGEIKIGDKWVKVKKIEVEGSAGGSAGGSAGGS [r4_214_TrMRF]” it is less than -1 kcal/mol.
In the case of “SAGGSAGGSAGGTIKELAKEAAKKNPGWVPIRIPLPNGNPWKIRVQVDEPGKNRIEIEPSAGGSAGGSAGGS [r10_395_TrROS]”, the “folding stability dG unfold” value is less than -1 kcal/mol.
The figure for “SAGGSAGGSAGGTISFPTSSGLIKVEDMTIEEAKEKLKKENPNAKVIKLPTPNVYLIEVKSAGGSAGGSAGG [r7_370_JUSTAS]” is less than -1 kcal/mol; for “SAGGSAGGSAGGTVEELAKQIQEEWQENGFKVEKVEVEDGTIKIEWKNGRQREIPFEKGSAGGSAGGSAGGS [r10_169_TrROS]” it is less than -1 kcal/mol; for “SAGGSAGGSAGGWYISIEPKNKKEKTIMIPPGDPDILEELADNGDRVSIFDPKNGKEFKVSAGGSAGGSAGG [r7_430_TrROS]” it is less than -1 kcal/mol.
In the case of “SAGGSAGGSAGKIRIDARPNGNWRAHYPGGKEHEFNSPDDIKDELEKKFPNFDIIEIEPWSAGGSAGGSAGG [r11_806_TrROS]” it was less than -1 kcal/mol; in that of “SAGGSAGGSAGKKIEIDEANPEENMYRISFPDKRTHQFDSAEDLKEQIPPGIPVEIEPLKSAGGSAGGSAGG [r17_295_TrROS]”, less than -1 kcal/mol; in that of “SAGGSAGGSAGKTIMIRDPEALKKLPENQKIRIPDGKPFKIKKVEYVEENGWHRFTIKPESAGGSAGGSAGG [r11_316_TrROS]”, less than -1 kcal/mol.
In the case of “SAGGSAGGSAGLNVGDVVVEVEAGTEYEFLIPNPAKLVKVKVVPDPTTNELKVEEAKVYDLKSAGGSAGGSA [r18_222_TrMRF]” it was less than -1 kcal/mol; in that of “SAGGSAGGSAGMLYRALVPHPDGSFSTALSEDARELERELLEATGIPPENIKIEPIPLETSAGGSAGGSAGG [r17_169_TrMRF]”, less than -1 kcal/mol; in that of “SAGGSAGGSAGMNKKVVATFTDPNSDTTTTLVGPEEAFKSQFPPETASYSLTTVPEEALLSAGGSAGGSAGG [r11_334_JUSTAS]”, less than -1 kcal/mol.
As to “SAGGSAGGSAGMPFKITKVTPDGKITIYDGGNPITIPPGSDHIKIEFGGGTKEIKIPPGMSAGGSAGGSAGG [r11_647_TrROS]”, the “folding stability dG unfold” value is less than -1 kcal/mol.
The figure for “SAGGSAGGSAGMTTYEGTDPEELREAVEAEAKARGVEIEITSVTTSPDGKYTLDVKVTPPSAGGSAGGSAGG [r11_304_JUSTAS]” is less than -1 kcal/mol; for “SAGGSAGGSAGNIEVNGDRIKIRFEGGHEFTFPNLPPGKPIEFKFNNQPFRIRDVEVEPPSAGGSAGGSAGG [r11_16_TrROS]” it is less than -1 kcal/mol.
In the case of “SAGGSAGGSAGPDDFVTLTETIVEEIDPNLAELPPEVAERLVKEGVKVIEKVLTKVAPPSLLSAGGSAGGSA [r18_127_JUSTAS]” it was less than -1 kcal/mol; in that of “SAGGSAGGSAGPEVRPAPTPDGREVWVLRRTRRHPGPGDGVVVEEEVVPADDPEALRRRASAGGSAGGSAGG [r11_967_TrMRF]”, less than -1 kcal/mol; in that of “SAGGSAGGSAGPKEPIYYRLRIEPPNGETREFEFPVGASVEDIAKEFNIPPGGRVELEPVSAGGSAGGSAGG [r11_340_TrROS]”, less than -1 kcal/mol.
Regarding “SAGGSAGGSAGPKPVMWRIEFDNPDNGQKQEITIMIPPDDPEQAEEIAKKIGPNVKIEPVSAGGSAGGSAGG [r11_250_TrROS]”, the “folding stability dG unfold” value was less than -1 kcal/mol.
On to “SAGGSAGGSAGPKWKTINFPIDLKPGQSAKEIAKKFAEANPDMEIDGFNPERGWASITVPSAGGSAGGSAGG [r11_465_TrROS]”, for which the “folding stability dG unfold” value was less than -1 kcal/mol.
“SAGGSAGGSAGPPFEVVGVSRHGDSVTVLARNPDSDELVASTFTNGVIGSTAVIPSEEVGSAGGSAGGSAGG [r11_19_TrMRF]”: the “folding stability dG unfold” value was less than -1 kcal/mol.
The figure for “SAGGSAGGSAGPPVPKLFKVKEVTYHPGPKTVTVKTENGETITVPPGVAENVPPGGYLAASAGGSAGGSAGG [r11_124_TrMRF]” is less than -1 kcal/mol.
The figure for “SAGGSAGGSAGRMYIIRNPGKKVIIPRGWMPKLQKKNPNVEIEEFESPEDADKAQDKALDSAGGSAGGSAGG [r11_60_TrROS]” is less than -1 kcal/mol; for “SAGGSAGGSAGSMTVLEEEEIELPDDVVLTRLKVPGEELIRIEIPEEGKEEIIPASEWPGSAGGSAGGSAGG [r17_286_JUSTAS]” it is less than -1 kcal/mol; for “SAGGSAGGSAGSMVLESEEPIPETGEPVLVKTTLSEEPGRERTIVTTYRDGKPLSTTVELSAGGSAGGSAGG [r11_631_JUSTAS]” it is less than -1 kcal/mol.
The figure for “SAGGSAGGSAGSPPDQTVTITTTVVTTETTTYPGTPGVTVPRTVVTTVPVTLPVTDPALLSAGGSAGGSAGG [r11_734_JUSTAS]” is less than -1 kcal/mol.
Consider “SAGGSAGGSAGSPSEVKYSEEVLEEPLPGGVPYRLVVRTRTVLEGDKVVEEEEETELVLLSAGGSAGGSAGG [r11_35_JUSTAS]”, for which the “folding stability dG unfold” value was less than -1 kcal/mol.
In the case of “SAGGSAGGSAGTEISLPSSLPDRPIETVPVEIVSPGPGDPRRETINVTRTPDRVLAVDRRSAGGSAGGSAGG [r11_21_JUSTAS]” it was less than -1 kcal/mol; in that of “SAGGSAGGSAGTIRNPGMEFTIKKDPNDKVVVKMNDQERTIRVGKPIYFPGGMPFRIEPASAGGSAGGSAGG [r11_147_TrROS]”, less than -1 kcal/mol; in that of “SAGGSAGGSAGVFWRIRMPGHTIPIPIEGDLNEAKDYIRDEMREHHGEPIDPDNIEIEIVSAGGSAGGSAGG [r11_1028_TrROS]”, less than -1 kcal/mol.
In the case of “SAGGSAGGSAGVKPGQTIEVPGAKITVEEVDGKLVLKVEELPPPPAPEVEVKRYVSEEDLSAGGSAGGSAGG [r11_534_TrROS_Hall]” it was less than -1 kcal/mol; in that of “SAGGSAGGSAGWIKEALRDMPPGKPRRIPIRNPDGNPIKIRIKVDRDPENGKYEVPIEIVSAGGSAGGSAGG [r11_343_TrROS]”, less than -1 kcal/mol.
As to “SAGGSAGGSAGYIMIKSPEMAEEMAKPGYEIEVEPVPPKDINNGDPNDTMYIIEIKPPGKSAGGSAGGSAGG [r11_168_TrROS]”, the “folding stability dG unfold” value is less than -1 kcal/mol.
Regarding “SAGGSAGGSAINLADIHEVEVEEIPEDPTAVYRVRARLPEPGVPVDFLLVRFPDGSVRFYGSAGGSAGGSAG [r3_234_TrMRF]”, the “folding stability dG unfold” value is less than -1 kcal/mol.
The figure for “SAGGSAGGSAKIKVEWEQHPEGYNLVKVEIPNPDNGKKKKVEGPFDSLEDAEDEAKELLKKSAGGSAGGSAG [r3_174_TrROS]” is less than -1 kcal/mol; for “SAGGSAGGSAKKIEIDPERDPNGMHLVEVTRRDPGNGKKKDIPFNVNPGKMTPEEIKDLAKSAGGSAGGSAG [r3_127_TrROS]” it is less than -1 kcal/mol; for “SAGGSAGGSALLPLPEDAVLEVPFPGTEEEAEVFAAELAKAFPVGEITLEKEPTSYRLVVRSAGGSAGGSAG [r3_73_TrMRF]” it is less than -1 kcal/mol.
In the case of “SAGGSAGGSAMNPSEPYVTLTETVVEEAEEVVETFPGYGVYKYTETKLKTTVKVTTVPKSLLSAGGSAGGSA [r18_137_JUSTAS]” it was less than -1 kcal/mol.
Consider “SAGGSAGGSAMPEEEKPPIVRTVVLQADGEPIVLTSKPDEEIKLPPSLANAVVLEEEVSPGLSAGGSAGGSA [r18_415_JUSTAS]”, for which the “folding stability dG unfold” value is less than -1 kcal/mol.
The figure for “SAGGSAGGSAMPVVEIGLEMEPYEPEAGGKLMLVPIKDNLLPEHALAAARLLEPLGVVTAPSAGGSAGGSAG [r3_157_TrMRF]” is less than -1 kcal/mol; for “SAGGSAGGSANFRILVDPPTNKIWIFDPPGYVYKIKVDPKEGKMKHEPVPIPPDDLPPNAFKSAGGSAGGSA [r18_59_TrROS]” it is less than -1 kcal/mol.
In the case of “SAGGSAGGSANLEAAKKLFKDYPPGEEREIPIRVRTPGKPVPFRIKIYYPEDGNMKIDIEPYSAGGSAGGSA [r18_493_TrROS]”, the “folding stability dG unfold” value is less than -1 kcal/mol.
